Experimental data reported in patent publication US6518054B1, “Metallo-endopeptidases” (Rijksuniverstteit Te Groningen, priority 1997, dated 2003).

Assay: Effect of denaturing agents on protease activity (FaGLa, 50° C.)
Format: biochemical
Procedure: Protease activities were determined in 50 mM MOPS (pH 7.0), 5 mM CaCl2, 50 mM NaCl, 0.01% Triton X-100, 0.5% isopropanol, using 100 μM FaGLa (3-(-2-furylacryloyl)-L-glycyl-L-leucine amide) as a substrate at 50° C. Enzymes and denaturing agents were preincubated in the reaction mixture at 50° C. for 15 minutes prior to the addition of the substrate. The reaction was followed by measuring the change in absorbance at 345 nm. […] Activities are expressed as percentage of the activity in the absence of denaturant.

B1: 8-fold mutant: TLP-ste with A4T, T56A, G58A, T63F, S65P, A69P and a disulfide bridge G8C-N60C (protein)
chain: VAGTSTVCVGRGVLGDQKYINTTYSSYYGYYYLQDNTRGSGIFTYDGRNRTVLPGSLWADADCQFFAPYDAPAVDAHYYAGVVYDYYKNVHGRLSYDGSNAAIRSTVHYGRGYNNAFWNGSQMVYGDGDGQTFLPFSGGIDVVGHELTHAVTDYTAGLVYQNESGAINEAMSDIFGTLVEFYANRNPDWEIGEDIYTPGVAGDALRSMSDPAKYGDPDHYSKRYTGTQDNGGVHTNSGIINKAAYLLSQGGVHYGVSVNGIGRDKMGKIFYRALVYYLTPTSNFSQLRAACVQAAADLYGSTSQEVNSVKQAFNAVGVY
  activity and stability in the presence of high concentrations of denaturing agents: active and stable
GndHCl 0 M
  relative activity: 100%
GndHCl 1.0 M
  relative activity: 95%
GndHCl 2.0 M
  relative activity: 83%
GndHCl 3.0 M
  relative activity: 68%
GndHCl 4.0 M
  relative activity: 50%
GndHCl 5.0 M
  relative activity: 40%
GndHCl 5.5 M
  relative activity: 15%
GndHCl 6.0 M
  relative activity: 0%
SDS 0 % w/v
  relative activity: 100%
SDS 0.25 % w/v
  relative activity: 94%
SDS 0.5 % w/v
  relative activity: 81%
SDS 0.75 % w/v
  relative activity: 57%
SDS 1.0 % w/v
  relative activity: 40%
SDS 1.25 % w/v
  relative activity: 29%
SDS 1.5 % w/v
  relative activity: 22%
SDS 2.0 % w/v
  relative activity: 0%
Urea 0 M
  relative activity: 100%
Urea 0.5 M
  relative activity: 97%
Urea 1.0 M
  relative activity: 91%
Urea 2.0 M
  relative activity: 93%
Urea 3.0 M
  relative activity: 86%
Urea 4.0 M
  relative activity: 72%
Urea 5.0 M
  relative activity: 63%
Urea 7.5 M
  relative activity: 35%
